Reference: article PMC4718636

Biological target: hAgo2 (Homo sapiens), Q9UKV8
Test: cleavage activity titration
Conditions: siRNA-bound hAgo2; remark: other sources report otherwise

hAgo2 (Homo sapiens), Q9UKV8, sequence (Q9UKV8 whole entry): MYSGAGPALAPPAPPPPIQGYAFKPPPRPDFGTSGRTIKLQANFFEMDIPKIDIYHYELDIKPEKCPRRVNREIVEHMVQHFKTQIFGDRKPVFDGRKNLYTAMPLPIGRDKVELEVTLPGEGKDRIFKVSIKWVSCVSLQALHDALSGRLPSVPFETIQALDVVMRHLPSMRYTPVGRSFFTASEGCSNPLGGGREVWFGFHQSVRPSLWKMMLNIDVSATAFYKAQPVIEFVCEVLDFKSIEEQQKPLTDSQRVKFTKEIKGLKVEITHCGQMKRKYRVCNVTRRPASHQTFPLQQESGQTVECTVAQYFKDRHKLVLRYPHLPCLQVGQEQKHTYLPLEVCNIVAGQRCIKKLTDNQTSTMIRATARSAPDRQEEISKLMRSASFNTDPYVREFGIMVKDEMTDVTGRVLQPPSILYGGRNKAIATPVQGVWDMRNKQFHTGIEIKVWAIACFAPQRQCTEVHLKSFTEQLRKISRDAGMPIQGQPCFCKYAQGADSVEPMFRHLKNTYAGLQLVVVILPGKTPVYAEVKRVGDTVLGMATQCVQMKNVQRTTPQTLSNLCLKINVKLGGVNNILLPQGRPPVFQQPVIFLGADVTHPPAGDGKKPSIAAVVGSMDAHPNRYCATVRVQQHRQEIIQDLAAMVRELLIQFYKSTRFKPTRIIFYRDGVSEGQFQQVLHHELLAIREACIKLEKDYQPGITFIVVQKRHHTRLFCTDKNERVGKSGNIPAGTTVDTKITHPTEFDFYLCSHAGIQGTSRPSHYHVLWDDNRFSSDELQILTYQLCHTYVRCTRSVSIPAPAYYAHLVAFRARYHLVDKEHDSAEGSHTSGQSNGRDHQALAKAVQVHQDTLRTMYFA

B1: hTRBP, Q15633 (protein)
chain: MSEEEQGSGTTTGCGLPSIEQMLAANPGKTPISLLQEYGTRIGKTPVYDLLKAEGQAHQPNFTFRVTVGDTSCTGQGPSKKAAKHKAAEVALKHLKGGSMLEPALEDSSSFSPLDSSLPEDIPVFTAAAAATPVPSVVLTRSPPMELQPPVSPQQSECNPVGALQELVVQKGWRLPEYTVTQESGPAHRKEFTMTCRVERFIEIGSGTSKKLAKRNAAAKMLLRVHTVPLDARDGNEVEPDDDHFSIGVGSRLDGLRNRGPGCTWDSLRNSVGEKILSLRSCSLGSLGALGPACCRVLSELSEEQAFHVSYLDIEELSLSGLCQCLVELSTQPATVCHGSATTREAARGEAARRALQYLKIMAGSK
Kd: 2000 nM
